Reference: patent publication US20250026849A1 (ARCELLX, published 2025)

T1: CD123 (Homo sapiens (Human), UniProt P26951 19-305, limits assumed)
T1 construct: The CD123 construct used in the ELISA is not described; also called CD123-Signal
T1 sequence: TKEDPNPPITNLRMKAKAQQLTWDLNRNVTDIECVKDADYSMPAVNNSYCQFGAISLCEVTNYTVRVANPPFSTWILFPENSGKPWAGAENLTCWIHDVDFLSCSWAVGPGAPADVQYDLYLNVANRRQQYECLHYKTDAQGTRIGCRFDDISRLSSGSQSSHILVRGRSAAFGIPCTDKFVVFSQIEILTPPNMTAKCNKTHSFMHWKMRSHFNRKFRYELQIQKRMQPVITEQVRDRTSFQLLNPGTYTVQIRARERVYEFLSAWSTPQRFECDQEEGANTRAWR

T2: BCMA (Homo sapiens (Human), UniProt Q02223 1-54, limits assumed)
T2 sequence: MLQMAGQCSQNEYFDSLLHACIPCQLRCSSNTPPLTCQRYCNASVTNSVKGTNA

B1: D domain of SEQ ID NO: 657 (designed binder)
chain: MGSWHEFWQRLEAIEGRLWALGGSEAELADFESLIADFEEQLQEYKGKGNPEVEALMAEAEAIDNELRAYRHN
B2: D domain of SEQ ID NO: 658 (designed binder)
chain: MGSWYEFEQRLEAIEWRLGALGGSEAELATFEEDIADFEEWLQEYKGKGNPEVEALQYEAYAIAEELHAYRHN
B3: D domain of SEQ ID NO: 659 (designed binder)
chain: MGSWYEFENRLFAIEERLWALGGSEAELAWFEYEIANFEWGLQSYKGKGNPEVEALDNEAEAIDIELAAYRHN
B4: D domain of SEQ ID NO: 656 (designed binder)
chain: MGSWFEFETRLEAIDLRLWALGGSEAELATFEDVIAFFEDWLQFYKGKGNPEVEALKMEAWAIGEELHAYRHN
B5: D domain of SEQ ID NO: 655 (designed binder)
chain: MGSWLEFETRLHAIDERLWALGGSEAELAEFEEHIAWFEEDLQFYKGKGNPEVEALDFEADAIGWELWAYRHN
B6: D-domain SEQ ID NO: 79 (designed binder)
chain: MGSWVEFKARLEAISSRLTALGGSEAELAAFEKEIAAFESELQAYKGKGNPEVEELRYSAALIRVYLQAYRHN
B7: D-domain SEQ ID NO: 195 (designed binder)
chain: MGSWVEFWDRLGAIRDRLDALGGSEAELAAFEKEIAAFESELQAYKGKGNPEVEELRNTAAYIRTFLQAYRHN
B8: D-domain SEQ ID NO: 88 (designed binder)
chain: MGSWYEFSMRLSAIWERLHALGGSEAELAAFEKEIAAFESELQAYKGKGNPEVEELRYQAALIRFYLQAYRHN
B9: D-domain SEQ ID NO: 193 (designed binder)
chain: MGSWVEFWDRLGAIRERLEALGGSEAELAAFEKEIAAFESELQAYKGKGNPEVEKLRYVAAVIRHRLQAYRHN
B10: D-domain SEQ ID NO: 121 (designed binder)
chain: MGSWSEFEERLAAIGSRLFALGGSEAELAAFEKEIAAFESELQAYKGKGNPEVETLRFDAALIRIYLQAYRHN
B11: D-domain SEQ ID NO: 113 (designed binder)
chain: MGSWNEFDNRLQAIWDRLHALGGSEAELAAFEKEIAAFESELQAYKGKGNPEVEELRFHAAMIRITLQAYRHN
B12: D-domain SEQ ID NO: 92 (designed binder)
chain: MGSWTEFANRLEAINARLHALGGSEAELAAFEKEIAAFESELQAYKGKGNPEVEELRFSAALIRVYLQAYRHN
B13: D-domain SEQ ID NO: 83 (designed binder)
chain: MGSWSEFDQRLAAIYQRLNALGGSEAELAAFEKEIAAFESELQAYKGKGNPEVEELRYSAALIRVMLQAYRHN
B14: D-domain SEQ ID NO: 81 (designed binder)
chain: MGSWAEFYHRLDAISSRLRALGGSEAELAAFEKEIAAFESELQAYKGKGNPEVEELRYTAALIRIYLQAYRHN
B15: D-domain SEQ ID NO: 94 (designed binder)
chain: MGSWIEFHQRLEAIVTRLEALGGSEAELAAFEKEIAAFESELQAYKGKGNPEVEELRYQAALIRVFLQAYRHN
B16: D-domain SEQ ID NO: 90 (designed binder)
chain: MGSWTEFHDRLEAITHRLNALGGSEAELAAFEKEIAAFESELQAYKGKGNPEVEELRYSAALLRVFLQAYRHN
B17: D-domain SEQ ID NO: 78 (designed binder)
chain: MGSWVEFRSRLEAISNRLRALGGSEAELAAFEKEIAAFESELQAYKGKGNPEVEELRTTAALIRVYLQAYRHN
B18: D-domain SEQ ID NO: 87 (designed binder)
chain: MGSWVEFQGRLGAIHERLQALGGSEAELAAFEKEIAAFESELQAYKGKGNPEVEELRYSAALIRVFLQAYRHN
B19: D-domain SEQ ID NO: 111 (designed binder)
chain: MGSWTEFDHRLGAIWERLVALGGSEAELAAFEKEIAAFESELQAYKGKGNPEVEELRFHAAIIRIFLQAYRHN
B20: D-domain SEQ ID NO: 82 (designed binder)
chain: MGSWTEFASRLVAIRQRLQALGGSEAELAAFEKEIAAFESELQAYKGKGNPEVEELRYSAAIIRVMLQAYRHN
B21: D-domain SEQ ID NO: 101 (designed binder)
chain: MGSWVEFYDRLEAIRYRLSALGGSEAELAAFEKEIAAFESELQAYKGKGNPEVEELRYIAAVIRYRLQAYRHN
B22: D-domain SEQ ID NO: 85 (designed binder)
chain: MGSWNEFEDRLSAISARLSALGGSEAELAAFEKEIAAFESELQAYKGKGNPEVEELRYSAALIRVMLQAYRHN
B23: D-domain SEQ ID NO: 120 (designed binder)
chain: MGSWHEFYYRLEAIEQRLHALGGSEAELAAFEKEIAAFESELQAYKGKGNPEVETLRFDAALIRIYLQAYRHN
B24: D-domain SEQ ID NO: 114 (designed binder)
chain: MGSWTEFHERLQAIWFRLHALGGSEAELAAFEKEIAAFESELQAYKGKGNPEVEELRFRAAIIRLYLQAYRHN
B25: D-domain SEQ ID NO: 84 (designed binder)
chain: MGSWVEFHNRLSAISDRLGALGGSEAELAAFEKEIAAFESELQAYKGKGNPEVEELRYSAALIRVMLQAYRHN
B26: D-domain SEQ ID NO: 100 (designed binder)
chain: MGSWVEFYHRLEAIRYRLSALGGSEAELAAFEKEIAAFESELQAYKGKGNPEVEELRYVAAVIRYRLQAYRHN
B27: D-domain SEQ ID NO: 89 (designed binder)
chain: MGSWTEFSQRLGAISERLYALGGSEAELAAFEKEIAAFESELQAYKGKGNPEVEELRYSAALIRFMLQAYRHN
B28: D-domain SEQ ID NO: 91 (designed binder)
chain: MGSWTEFEHRLEAIAGRLNALGGSEAELAAFEKEIAAFESELQAYKGKGNPEVEELRYSAALIRFWLQAYRHN
B29: D-domain SEQ ID NO: 194 (designed binder)
chain: MGSWVEFWDRLGAIRERLQALGGSEAELAAFEKEIAAFESELQAYKGKGNPEVEELRASAAAIRIALQAYRHN
B30: D-domain SEQ ID NO: 103 (designed binder)
chain: MGSWEEFSERLEAISIRLRALGGSEAELAAFEKEIAAFESELQAYKGKGNPEVEELRVSAAIIRVWLQAYRHN
B31: D-domain SEQ ID NO: 112 (designed binder)
chain: MGSWTEFHVRLSAIWDRLVALGGSEAELAAFEKEIAAFESELQAYKGKGNPEVEELRFHAAIIRIVLQAYRHN
B32: D-domain SEQ ID NO: 72 (designed binder)
chain: MGSWVEFQDRLEAITDRLYALGGSEAELAAFEKEIAAFESELQAYKGKGNPEVEELRYSAAMIRVILQAYRHN
B33: D-domain SEQ ID NO: 97 (designed binder)
chain: MGSWVEFEERLAAIATRLHALGGSEAELAAFEKEIAAFESELQAYKGKGNPEVEELRWRAAIIRVYLQAYRHN
B34: D-domain SEQ ID NO: 104 (designed binder)
chain: MGSWSEFSDRLHAISDRLQALGGSEAELAAFEKEIAAFESELQAYKGKGNPEVEELRIQAAIIRVWLQAYRHN
B35: D-domain SEQ ID NO: 99 (designed binder)
chain: MGSWTEFRDRLGAIYHRLDALGGSEAELAAFEKEIAAFESELQAYKGKGNPEVEELRYQAAIIRVYLQAYRHN
B36: D-domain SEQ ID NO: 96 (designed binder)
chain: MGSWWEFEDRLSAIMERLHALGGSEAELAAFEKEIAAFESELQAYKGKGNPEVEELRYRAAIIRVYLQAYRHN
B37: D-domain SEQ ID NO: 185 (designed binder)
chain: MGSWVEFWDRLGAIRERLQALGGSEAELAAFEKEIAAFESELQAYKGKGNPEVEKLRYTAAAIRHYLQAYRHN
B38: D-domain SEQ ID NO: 93 (designed binder)
chain: MGSWEEFDRRLYAIARRLEALGGSEAELAAFEKEIAAFESELQAYKGKGNPEVEELRYQAALIRVWLQAYRHN
B39: D-domain SEQ ID NO: 95 (designed binder)
chain: MGSWSEFYDRLKAIADRLHALGGSEAELAAFEKEIAAFESELQAYKGKGNPEVEELRTEAAIIRVYLQAYRHN
B40: D-domain SEQ ID NO: 80 (designed binder)
chain: MGSWSEFYTRLEAINNRLHALGGSEAELAAFEKEIAAFESELQAYKGKGNPEVEELRYTAALIRIYLQAYRHN
B41: D-domain SEQ ID NO: 73 (designed binder)
chain: MGSWVEFQERLMAISDRLYALGGSEAELAAFEKEIAAFESELQAYKGKGNPEVEELRWQAAMIRYTLQAYRHN
B42: D-domain SEQ ID NO: 86 (designed binder)
chain: MGSWVEFEYRLVAIFDRLQALGGSEAELAAFEKEIAAFESELQAYKGKGNPEVEELRYQAALIRVMLQAYRHN

The binders below were run against T1, CD123 (assay: ELISA).
Design: unit not given here
An ELISA_avg of 7 was found for B1 in this work.
An ELISA_avg of 4.4 was found for B2 in this work.
An ELISA_avg of 3.3 was found for B3 in this work.
An ELISA_avg of 6.6 was found for B4 in this work.
An ELISA_avg of 4.6 was found for B5 in this work.

The binders below were run against T2, BCMA (assay: ELISA, format not described).
Design: unit not given here
An ELISA_avg of 8.71 was found for B6 in this work.
An ELISA_avg of 16 was found for B7 in this work.
An ELISA_avg of 7.12 was found for B8 in this work.
An ELISA_avg of 4.18 was found for B9 in this work.
An ELISA_avg of 4.85 was found for B10 in this work.
An ELISA_avg of 9.87 was found for B11 in this work.
An ELISA_avg of 6.42 was found for B12 in this work.
An ELISA_avg of 7.72 was found for B13 in this work.
An ELISA_avg of 4.31 was found for B14 in this work.
An ELISA_avg of 8 was found for B15 in this work.
An ELISA_avg of 5.79 was found for B16 in this work.
An ELISA_avg of 3.04 was found for B17 in this work.
An ELISA_avg of 3.83 was found for B18 in this work.
An ELISA_avg of 9.54 was found for B19 in this work.
An ELISA_avg of 7.99 was found for B20 in this work.
An ELISA_avg of 5.64 was found for B21 in this work.
An ELISA_avg of 4.09 was found for B22 in this work.
An ELISA_avg of 3.73 was found for B23 in this work.
An ELISA_avg of 12.1 was found for B24 in this work.
An ELISA_avg of 7.36 was found for B25 in this work.
An ELISA_avg of 7.8 was found for B26 in this work.
An ELISA_avg of 4.15 was found for B27 in this work.
An ELISA_avg of 6.34 was found for B28 in this work.
An ELISA_avg of 3.07 was found for B29 in this work.
An ELISA_avg of 11.3 was found for B30 in this work.
An ELISA_avg of 23.6 was found for B31 in this work.
An ELISA_avg of 8.88 was found for B32 in this work.
An ELISA_avg of 16.3 was found for B33 in this work.
An ELISA_avg of 6.37 was found for B34 in this work.
An ELISA_avg of 6.7 was found for B35 in this work.
An ELISA_avg of 10.4 was found for B36 in this work.
An ELISA_avg of 5.22 was found for B37 in this work.
An ELISA_avg of 8.85 was found for B38 in this work.
An ELISA_avg of 8.21 was found for B39 in this work.
An ELISA_avg of 3.66 was found for B40 in this work.
An ELISA_avg of 6.7 was found for B41 in this work.
An ELISA_avg of 7.63 was found for B42 in this work.
